The data set in a line: self-splicing fitness, log relative to wild type (ln ratio); higher = more splicing; Tetrahymena group I intron in knt gene, E. coli kanamycin selection, DiMSum; sequences stand for … in CUCUCU…GGAGGGAAAAGUUAUCAGGCAUGCACCUGGUAGCUAGUCUUUAAACCAAUAGAUUGCAUCGGUUUAAAAGGCAAGACCGUCAAAUUGCGGGAAAGGGGUCAACAGCCGUUCAGUACCAAGUCUCAGGGGAAACUUUGAGAUGGCCUUGCAAAGGGUAUGGUAAUAAGCUGACGGACAUGGUCCUAACCACGCAGCCAAGUCCUAAGUCAACAGAUCUUCUGUUGAUAUGGAUGCAGUUCACAGACUAAAUGUCGGUCGGGGAAGAUGUAUUCUUCUCAUAAGAUAUAGUCGGACCUCUCCUUAAUGGGAGCUAGCGGAUGAAGUGAUGCAACACUGGAGCCGCUGGGAACUAAUUUGUAUGCGAAAGUAUAUUGAUUAGUUUUGGAGUACUCGUGGUCG
The method in brief: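 Six replicate transformations of E. coli BL21(DE3) with a pET-22b(+) library were grown overnight at 37°C or 30°C. The library randomised all eight P1ex-region intron nucleotides, the intron lying in the knt kanamycin-resistance gene, and plates were LB agar with or without 25 μg/mL kanamycin plus 100 μg/mL carbenicillin, 50 μM IPTG and 0.2% rhamnose. Pooled colonies were amplicon-sequenced on an Illumina HiSeq 2500, and fitness is the DiMSum error-weighted combination of wild-type-normalised replicate fold changes, kanamycin versus none.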

± gives the uncertainty stated by the source.

On to AUACAGCAAUAUUACGGGUG, for which the “self-splicing fitness (ln)” value (30 °C) was -1.63 ± 0.065 and the “self-splicing fitness (ln)” value (37 °C) is -1 ± 0.073.

With AAUGAGCAAUAUUACGGCAG, the “self-splicing fitness (ln)” value reads like this: (30 °C) -2.62 ± 0.24; (37 °C) -1.87 ± 0.46.

Regarding CGGCAGCAAUAUUACGGUCU, the “self-splicing fitness (ln)” value reads like this: (30 °C) -0.384 ± 0.066; (37 °C) 0.364 ± 0.087.

Consider GGUCAGCAAUAUUACGACCG, for which the “self-splicing fitness (ln)” value was -1.89 ± 0.17 (30 °C) and -1.26 ± 0.19 (37 °C).

For the sequence AUCGAGCAAUAUUACGGGCG, the “self-splicing fitness (ln)” value was -2.97 ± 0.16 (30 °C) and -2.37 ± 0.19 (37 °C).

Turning to UGCGAGCAAUAUUACGUCGA, the “self-splicing fitness (ln)” value runs as follows: (30 °C) -2.22 ± 0.16; (37 °C) -1.85 ± 0.2.

With CGUAAGCAAUAUUACGGAAA, the “self-splicing fitness (ln)” value is, setting by setting: (30 °C) -3.62 ± 0.47; (37 °C) -2.39 ± 0.39.

With GCACAGCAAUAUUACGCAAU, the “self-splicing fitness (ln)” value by setting is: (30 °C) -1.14 ± 0.1; (37 °C) -0.864 ± 0.087.

Consider AAACAGCAAUAUUACGCCAC, for which, under “37 °C”, the “self-splicing fitness (ln)” value was -1.77 ± 0.31.

With CAUCAGCAAUAUUACGACGA, the “self-splicing fitness (ln)” value is, setting by setting: (30 °C) -1.38 ± 0.16; (37 °C) -0.863 ± 0.14.

For the sequence AUGCAGCAAUAUUACGGUGG, the “self-splicing fitness (ln)” value (30 °C) was -3.96 ± 0.18 and the “self-splicing fitness (ln)” value (37 °C) is -1.86 ± 0.12.

On to GGAGAGCAAUAUUACGCGCU, for which the “self-splicing fitness (ln)” value runs as follows: (30 °C) -2.69 ± 0.25; (37 °C) -1.67 ± 0.28.

As to CUACAGCAAUAUUACGGAGG, the “self-splicing fitness (ln)” value was -2.21 ± 0.087 (30 °C) and -1.33 ± 0.11 (37 °C).

For the sequence ACUGAGCAAUAUUACGCUUG, the “self-splicing fitness (ln)” value runs as follows: (30 °C) -3.28 ± 0.3; (37 °C) -2.75 ± 0.31.

On to ACGCAGCAAUAUUACGAGAU, for which the “self-splicing fitness (ln)” value was -3.32 ± 0.14 (30 °C) and -2.68 ± 0.18 (37 °C).

On to AUUAAGCAAUAUUACGAGAG, for which the “self-splicing fitness (ln)” value reads like this: (30 °C) -2.61 ± 0.24; (37 °C) -1.83 ± 0.27.

As for GUACAGCAAUAUUACGAACC, the “self-splicing fitness (ln)” value runs as follows: (30 °C) -1.19 ± 0.14; (37 °C) -0.582 ± 0.18.

In the case of UACUAGCAAUAUUACGGGGA, the “self-splicing fitness (ln)” value reads like this: (30 °C) -1.37 ± 0.14; (37 °C) -0.992 ± 0.12.

With CCUCAGCAAUAUUACGGACU, the “self-splicing fitness (ln)” value by setting is: (30 °C) -3.93 ± 0.33; (37 °C) -1.79 ± 0.24.

As for UAAAAGCAAUAUUACGACAA, the “self-splicing fitness (ln)” value by setting is: (30 °C) -0.243 ± 0.1; (37 °C) 0.272 ± 0.11.

Consider GGUUAGCAAUAUUACGCGCA, for which the “self-splicing fitness (ln)” value reads like this: (30 °C) 1.25 ± 0.28; (37 °C) 0.766 ± 0.34.

Consider UUCUAGCAAUAUUACGCAGU, for which the “self-splicing fitness (ln)” value is -3.89 ± 0.43 (30 °C) and -3.11 ± 0.35 (37 °C).

With CUCUAGCAAUAUUACGUUAU, the “self-splicing fitness (ln)” value runs as follows: (30 °C) -3.92 ± 0.4; (37 °C) -2.16 ± 0.25.

For AUGUAGCAAUAUUACGCGUC, the “self-splicing fitness (ln)” value is -2.6 ± 0.22 (30 °C) and -2.32 ± 0.3 (37 °C).

On to AUCCAGCAAUAUUACGGCUG, for which the “self-splicing fitness (ln)” value was -3.69 ± 0.39 (30 °C) and -2.43 ± 0.27 (37 °C).

As for CAAAAGCAAUAUUACGAGAA, the “self-splicing fitness (ln)” value by setting is: (30 °C) -1.51 ± 0.24; (37 °C) -2.47 ± 0.25.

For GUGAAGCAAUAUUACGUCGC, the “self-splicing fitness (ln)” value was -2.77 ± 0.25 (30 °C) and -1.75 ± 0.18 (37 °C).

As for CAAAAGCAAUAUUACGCCAG, the “self-splicing fitness (ln)” value runs as follows: (30 °C) -0.849 ± 0.075; (37 °C) -1.32 ± 0.09.

With GAUAAGCAAUAUUACGCAUA, the “self-splicing fitness (ln)” value was -0.919 ± 0.13 (30 °C) and -0.783 ± 0.18 (37 °C).

For the sequence UUGUAGCAAUAUUACGCACA, the “self-splicing fitness (ln)” value by setting is: (30 °C) -0.174 ± 0.17; (37 °C) -0.658 ± 0.22.

As for CGGCAGCAAUAUUACGAUUG, the “self-splicing fitness (ln)” value by setting is: (30 °C) -0.72 ± 0.055; (37 °C) 0.0589 ± 0.08.

For the sequence CUGUAGCAAUAUUACGUAGA, the “self-splicing fitness (ln)” value (30 °C) is -2.66 ± 0.12 and the “self-splicing fitness (ln)” value (37 °C) is -2.51 ± 0.16.

Consider GUUGAGCAAUAUUACGGAGA, for which the “self-splicing fitness (ln)” value runs as follows: (30 °C) -2.47 ± 0.45; (37 °C) -1.8 ± 0.35.

For the sequence GACCAGCAAUAUUACGCAAG, the “self-splicing fitness (ln)” value was -1.81 ± 0.089 (30 °C) and -1.15 ± 0.11 (37 °C).

With UUCGAGCAAUAUUACGGAAA, the “self-splicing fitness (ln)” value runs as follows: (30 °C) -1.51 ± 0.18; (37 °C) -2.84 ± 0.32.

Take CCUCAGCAAUAUUACGGGAC: the “self-splicing fitness (ln)” value by setting is: (30 °C) -3.63 ± 0.23; (37 °C) -1.98 ± 0.26.

On to CGUAAGCAAUAUUACGCGUA, for which the “self-splicing fitness (ln)” value runs as follows: (30 °C) -3 ± 0.28; (37 °C) -2.9 ± 0.2.

As to AACUAGCAAUAUUACGGAAA, the “self-splicing fitness (ln)” value is -2.54 ± 0.2 (30 °C) and -0.697 ± 0.13 (37 °C).

UCGAAGCAAUAUUACGUCUU: the “self-splicing fitness (ln)” value is -3.87 ± 0.14 (30 °C) and -2.29 ± 0.15 (37 °C).

Regarding UGACAGCAAUAUUACGUCCG, the “self-splicing fitness (ln)” value by setting is: (30 °C) -0.00105 ± 0.12; (37 °C) -0.342 ± 0.13.

For the sequence CAAUAGCAAUAUUACGACUC, the “self-splicing fitness (ln)” value runs as follows: (30 °C) -3.34 ± 0.24; (37 °C) -0.701 ± 0.12.

With CAGCAGCAAUAUUACGGAGU, the “self-splicing fitness (ln)” value is, setting by setting: (30 °C) -3.15 ± 0.12; (37 °C) -2.49 ± 0.15.

For the sequence GGAGAGCAAUAUUACGGGUA, the “self-splicing fitness (ln)” value by setting is: (30 °C) -3.5 ± 0.28; (37 °C) -2.62 ± 0.2.

As for GAGGAGCAAUAUUACGUGCU, the “self-splicing fitness (ln)” value (30 °C) was -4.62 ± 0.42 and the “self-splicing fitness (ln)” value (37 °C) was -2.32 ± 0.21.

For CUACAGCAAUAUUACGGCUG, the “self-splicing fitness (ln)” value reads like this: (30 °C) -3.92 ± 0.18; (37 °C) -2.57 ± 0.22.

On to UCUCAGCAAUAUUACGUCGU, for which the “self-splicing fitness (ln)” value by setting is: (30 °C) -2.11 ± 0.091; (37 °C) -1.91 ± 0.11.

On to GAGGAGCAAUAUUACGACCU, for which, where the note is “30 °C”, the “self-splicing fitness (ln)” value is -2.45 ± 0.41.

As to CAUCAGCAAUAUUACGGACG, the “self-splicing fitness (ln)” value reads like this: (30 °C) -0.594 ± 0.053; (37 °C) -0.172 ± 0.08.

CGCGAGCAAUAUUACGCGUG: the “self-splicing fitness (ln)” value (30 °C) was -2.29 ± 0.14 and the “self-splicing fitness (ln)” value (37 °C) was -2.67 ± 0.15.

With AGCCAGCAAUAUUACGAGAU, the “self-splicing fitness (ln)” value was -3.39 ± 0.18 (30 °C) and -2.28 ± 0.2 (37 °C).

CUAGAGCAAUAUUACGCACU: the “self-splicing fitness (ln)” value reads like this: (30 °C) -4.52 ± 0.46; (37 °C) -1.99 ± 0.41.

On to CUGCAGCAAUAUUACGGCGC, for which the “self-splicing fitness (ln)” value is, setting by setting: (30 °C) -3.82 ± 0.3; (37 °C) -2.75 ± 0.4.

In the case of GUACAGCAAUAUUACGUUCU, the “self-splicing fitness (ln)” value reads like this: (30 °C) -1.98 ± 0.1; (37 °C) -0.102 ± 0.1.

As for GGUGAGCAAUAUUACGGCGC, the “self-splicing fitness (ln)” value is -0.434 ± 0.13 (30 °C) and -0.198 ± 0.19 (37 °C).

In the case of UACAAGCAAUAUUACGGUCA, the “self-splicing fitness (ln)” value runs as follows: (30 °C) 0.157 ± 0.062; (37 °C) 0.514 ± 0.072.

Turning to CUUAAGCAAUAUUACGGGAU, the “self-splicing fitness (ln)” value is -2.82 ± 0.17 (30 °C) and -1.94 ± 0.19 (37 °C).

For the sequence CAUUAGCAAUAUUACGACAC, the “self-splicing fitness (ln)” value reads like this: (30 °C) -2.3 ± 0.2; (37 °C) -1.89 ± 0.23.

Consider GAUUAGCAAUAUUACGGUGA, for which the “self-splicing fitness (ln)” value was -1.31 ± 0.11 (30 °C) and -1.24 ± 0.098 (37 °C).

As to CGCUAGCAAUAUUACGACAC, the “self-splicing fitness (ln)” value was -3.1 ± 0.23 (30 °C) and -1.33 ± 0.21 (37 °C).

Take AUCGAGCAAUAUUACGAUAA: the “self-splicing fitness (ln)” value is, setting by setting: (30 °C) -2.7 ± 0.26; (37 °C) -1.74 ± 0.21.

For the origin of these results see the supplement of paper PMC7877785.
